Laboratory results published in patent US8975044B2, “Polynucleotides encoding for frizzled-binding agents and uses thereof” (OncoMed Pharmaceuticals, Inc., priority 2008, dated 2015).

Target: T1, FZD8 binding to Wnt3A (Homo sapiens, UniProt Q9H461)
T1 construct: amino acids 1-157 of FZD8 linked in-frame to human IgG1 Fc
T1 sequence (Q9H461 28-157): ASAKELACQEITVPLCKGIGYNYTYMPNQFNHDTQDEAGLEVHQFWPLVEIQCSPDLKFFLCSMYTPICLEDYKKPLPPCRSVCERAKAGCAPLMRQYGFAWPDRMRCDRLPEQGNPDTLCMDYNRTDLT
Assay: Blocking of FZD8-Fc binding to Wnt3A (protein A depletion, STF293 reporter readout)
Assay type: biochemical
Details: in the absence of 18R8
Method: To assess the ability of 18R8 to block the binding of FZD to Wnt, 2 μl of 1.32 μg/μl soluble FZD8-Fc containing the Fri domain (amino acids 1-157 of FZD8 linked in-frame to human IgG1 Fc) was added to culture medium to bind Wnt3A (added as 20 μl of Wnt3A conditioned medium) either alone or in the presence of the 18R8 IgG antibody (added as 4 μl of 3.71 μg/μl). The mixtures were incubated either alone or in the presence of Protein A sepharose beads (GE Healthcare products; 20 μl of 50% solution in PBS) for two hrs at 4° C. After the incubation, the protein A beads (and any proteins complexed to the protein A beads) in each sample were removed by spinning and the supernatant was assayed for ability to induce 8×TCF luciferase activity. The supernatant was added to STF293 cells, which stably express 8×TCF (eight copies of the TCF-binding domain upstream of a firefly luciferase reporter gene) to measure canonical Wnt signaling levels and which were cultured in DMEM supplemented with antibiotics and 10% FCS. Eighteen hours following treatment of the STF293 cells, luciferase levels were measured using a dual luciferase assay kit (Promega; Madison, Wis.).

B1: Fzd8-Fc: soluble FZD8-Fc containing the Fri domain (amino acids 1-157 of FZD8 linked in-frame to human IgG1 Fc) (protein)
chain: ASAKELACQEITVPLCKGIGYNYTYMPNQFNHDTQDEAGLEVHQFWPLVEIQCSPDLKFFLCSMYTPICLEDYKKPLPPCRSVCERAKAGCAPLMRQYGFAWPDRMRCDRLPEQGNPDTLCMDYNRTDLT
modifications: left off: a dimerising Fc or GST
In the case of B1, the “effect on Wnt3A-stimulated signaling” value is reported as “inhibit the ability of Wnt3A to stimulate signaling”.
